The target in experiment [1] is T1, human CD39 expressed at the cell surface (human, UniProt P49961 1-510).
T1 construct: On CHO transfectants, Hek-293T transfectants, Ramos and Mino tumor cells; also called huCD39; CHO-huCD39
T1 sequence: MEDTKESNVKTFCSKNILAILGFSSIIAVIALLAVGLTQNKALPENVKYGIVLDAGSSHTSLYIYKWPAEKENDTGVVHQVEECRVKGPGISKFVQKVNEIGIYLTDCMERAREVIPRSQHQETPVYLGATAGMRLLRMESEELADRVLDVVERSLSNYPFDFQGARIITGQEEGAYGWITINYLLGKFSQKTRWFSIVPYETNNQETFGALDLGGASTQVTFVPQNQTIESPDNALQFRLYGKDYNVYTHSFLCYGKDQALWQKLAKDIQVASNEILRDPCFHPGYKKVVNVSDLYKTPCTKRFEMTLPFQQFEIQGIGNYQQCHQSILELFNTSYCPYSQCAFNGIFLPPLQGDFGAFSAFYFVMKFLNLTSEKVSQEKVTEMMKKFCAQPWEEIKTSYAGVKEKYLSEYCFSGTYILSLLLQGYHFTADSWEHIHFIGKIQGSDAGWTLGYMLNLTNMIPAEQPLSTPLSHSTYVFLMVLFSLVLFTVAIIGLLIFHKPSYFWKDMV
In words: flow cytometry, CHO cells expressing human CD39. The procedure:
Cells were incubated with various concentration of unlabeled anti-CD39 antibody from 30 μg/ml to 5×10⁻⁴ μg/ml, for 30 minutes at 4° C. After washes, cells were incubated with Goat anti-mouse H+L labeled secondary antibody for 30 min at 4° C.
Antibodies mAb1-21 were assessed for binding to CD39 by flow cytometry as described in Example 7, using CHO cells expressing human CD39 and CHO cells expressing cynomolgus (Macaca fascicularis) CD39.

Experiment [2] has as its target T1, human CD39 expressed at the cell surface. In words: flow cytometry titration on Ramos lymphoma cells (Mean of Fluorescence), panel L1.

Substitutions are numbered along the chain they refer to. Numbers in names are those of the source.

B1: mAb2 H0L1 (antibody, human IgG1, V domains shown)
VH: QVQLVQSGAEVKKPGASVKVSCKASGYTFTDYNMHWVRQAPGQRLEWMGYIVPLNGGSTFNQKFKGRVTITRDTSASTAYMELSSLRSEDTAVYYCARGGTRFAYWGQGTLVTVSS
VL: DIVMTQSPDSLAVSLGERATINCRASESVDNFGVSFMYWFQQKPGQPPKLLIYGASNQGSGVPDRFSGSGSGTDFTLTISSLQAEDVAVYYCQQTKEVPYTFGGGTKVEIK
Take B1: the binding result in experiment [1] was “binds”.

B2: mAb20 H4L1 (antibody, human IgG1, kappa, V domains shown)
VH: B1 VH with M48I, V68A, R72V, S77R
VL: DIVMTQSPDSLAVSLGERATINCRASESVDNFGVSFMYWFQQKPGQPPKLLIYGASNQGSGVPDRFSGSGSGTDFTLTISSLQAEDVAVYYCQQTKEVPYTFGGGTKVEIKR
notes: full heavy chain carries L234A/L235E/G237A/A330S/P331S
As a reminder, the EC50 (read off the curve) is the concentration that produces a half-maximal response. Higher therefore signals weaker potency. Turning to B2, the 50% effective concentration (EC50 (read off the curve)) in experiment [2] was about 0.8 µg/mL.

B3: mAb11 H2*L1 (antibody, human IgG1, V domains shown)
VH: B1 VH with N61S, V68A, R72V
VL: B1 VL
With B3, the binding result in experiment [1] was “binds”.

B4: mAb17 H3*L1 (antibody, human IgG1, V domains shown)
VH: B1 VH with M48I, N61S, K65Q, V68A, R72V
VL: B1 VL
Regarding B4, the binding result in experiment [1] is “binds”.

Values taken from patent US20230025732A1 (INNATE PHARMA, published 2023).
